Results taken from article doi:10.1101/609735 (bioRxiv, 2019).

Target: T1, mouse FLT1-FC chimeric protein with His-tag (mouse, UniProt P35969 23-759)
T1 sequence (looked up): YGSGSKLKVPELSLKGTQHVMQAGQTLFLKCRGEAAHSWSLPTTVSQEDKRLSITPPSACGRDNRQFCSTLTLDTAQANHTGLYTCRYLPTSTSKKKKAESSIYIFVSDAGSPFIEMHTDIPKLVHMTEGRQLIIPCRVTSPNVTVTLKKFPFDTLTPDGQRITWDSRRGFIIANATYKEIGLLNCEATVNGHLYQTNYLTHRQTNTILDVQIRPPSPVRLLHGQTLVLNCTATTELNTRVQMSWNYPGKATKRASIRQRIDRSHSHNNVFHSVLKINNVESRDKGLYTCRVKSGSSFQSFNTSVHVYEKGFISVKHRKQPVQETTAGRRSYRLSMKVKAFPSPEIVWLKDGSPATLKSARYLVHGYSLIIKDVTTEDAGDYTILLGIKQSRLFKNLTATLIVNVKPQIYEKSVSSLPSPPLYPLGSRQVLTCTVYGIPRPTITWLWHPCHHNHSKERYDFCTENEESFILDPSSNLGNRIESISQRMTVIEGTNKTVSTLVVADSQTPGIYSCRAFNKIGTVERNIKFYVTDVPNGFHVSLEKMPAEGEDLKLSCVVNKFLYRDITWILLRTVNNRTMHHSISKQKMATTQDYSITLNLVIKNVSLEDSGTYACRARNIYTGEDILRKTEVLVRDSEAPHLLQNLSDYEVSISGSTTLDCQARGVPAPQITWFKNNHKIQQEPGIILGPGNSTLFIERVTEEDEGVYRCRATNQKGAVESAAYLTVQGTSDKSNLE
Assay: ELISA

B1: recombinant mouse PlGF2 (ligand, UniProt P49764 19-158, looked up)
chain: VHSQGALSAGNNSTEVEVVPFNEVWGRSYCRPMEKLVYILDEYPDEVSHIFSPSCVLLSRCSGCCGDEGLHCVPIKTANITMQILKIPPNRDPHFYVEMTFSQDVLCECRPILETTKAERRKTKGKRKRSRNSQTEEPHP
B1: binds.
